Experimental data from patent US20200255508A1 (AbbVie / Abbott, published 2020).
Changes are numbered by the printed parent chain. Where two headings read alike, the source gives them in different places. Each block holds one binder with its values, some of them ahead of it.

Key:
[1] = target: T1, human DLL4 on the cell surface (human, UniProt Q9NR61 27-685); assay: competition FACS, competitor huNotch-1
T1 construct: whole, on cells; also called HEK293-hDLL4; hDLL4-293G
Description: (§1) Notch blocking assay: Briefly, stable cell lines overexpressing cell-surface DLL4 were harvested from tissue culture flasks and re-suspended in phosphate buffered saline (PBS) containing 1% bovine serum albumin and 1 mM CaCl₂ (FACS buffer). HEK293-hDLL4 or HEK293-mDLL4 cells were dispensed into 96-well plate (v-bottom) at 1.5×10⁵ cells/well in FACS buffer. […] After washing the cells two times with FACS buffer, 50 μL of R-phycoerythrin-conjugated streptavidin (1:150 dilution in FACS buffer) (Jackson ImmunoResearch, West Grove, Pa., US, catalog no. 016-110-084) were added. Following an incubation on ice (4° C., 60 minutes), cells were washed three times and resuspended in FACS buffer. Fluorescence was measured using a Becton Dickinson FACSCalibur-HTS (Becton Dickinson, San Jose. Calif.).

[2] = target: T2, mouse DLL4 on the cell surface (mouse, UniProt Q9JI71 27-686); assay: competition FACS, competitor huNotch-1
T2 construct: whole, on cells; also called HEK293-mDLL4; mDLL4-293G
T2 sequence (Q9JI71 27-686): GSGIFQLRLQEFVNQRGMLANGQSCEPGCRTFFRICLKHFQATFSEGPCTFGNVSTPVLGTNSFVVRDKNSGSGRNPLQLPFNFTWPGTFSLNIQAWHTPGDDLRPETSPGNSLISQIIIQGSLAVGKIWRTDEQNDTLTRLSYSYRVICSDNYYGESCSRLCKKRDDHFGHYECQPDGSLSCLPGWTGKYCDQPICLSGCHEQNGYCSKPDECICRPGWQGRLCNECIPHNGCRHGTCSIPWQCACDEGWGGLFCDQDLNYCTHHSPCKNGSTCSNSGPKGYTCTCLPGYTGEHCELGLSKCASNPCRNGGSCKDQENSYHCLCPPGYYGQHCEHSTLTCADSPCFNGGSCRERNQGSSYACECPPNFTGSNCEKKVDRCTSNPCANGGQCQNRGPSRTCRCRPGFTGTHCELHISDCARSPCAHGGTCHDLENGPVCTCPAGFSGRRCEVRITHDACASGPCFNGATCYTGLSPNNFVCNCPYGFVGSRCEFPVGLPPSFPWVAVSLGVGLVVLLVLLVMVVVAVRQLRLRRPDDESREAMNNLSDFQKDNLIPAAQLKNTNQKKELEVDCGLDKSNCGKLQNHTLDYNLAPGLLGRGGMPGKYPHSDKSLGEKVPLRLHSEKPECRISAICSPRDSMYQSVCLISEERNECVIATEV
Description: as §1

[3] = target: T1, human DLL4 on the cell surface; assay: FACS on DLL4 cells
Description: (§2) Stable cell lines overexpressing cell-surface DLL4 were harvested from tissue culture flasks, washed four times and resuspended in phosphate buffered saline (PBS) containing 1% bovine serum albumin and 1 mM CaCl₂ (FACS buffer), 1.5×10³ cells were incubated with antibodies at various concentrations in FACS buffer for 60 minutes on ice. Cells were washed twice and 50 μL of R-phycoerythrin-conjugated anti-rat IgG. […] Following an incubation on ice (4° C., 60 minutes), cells were washed three times and resuspended in FACS buffer. Fluorescence was measured using a Becton Dickinson FACSCalibur-HTS (Becton Dickinson, San Jose. Calif., US). Data were analyzed using Graphpad Prism software and EC₅₀ values were reported as the concentration of antibody to achieve 50% of maximal DLL4 antibodies binding to DLL4 expressing cells.

[4] = target: T2, mouse DLL4 on the cell surface; assay: FACS on DLL4 cells
Description: as §2

[5] = target: T1, human DLL4 on the cell surface; assay: cell-based or functional assay
[6] = target: T3, human DLL4 extracellular domain (human, UniProt Q9NR61 27-529); assay: cell-based or functional assay
[7] = target: T4, mouse DLL4 extracellular domain (mouse, UniProt Q9JI71 27-532); assay: cell-based or functional assay
T4 sequence (Q9JI71 27-532): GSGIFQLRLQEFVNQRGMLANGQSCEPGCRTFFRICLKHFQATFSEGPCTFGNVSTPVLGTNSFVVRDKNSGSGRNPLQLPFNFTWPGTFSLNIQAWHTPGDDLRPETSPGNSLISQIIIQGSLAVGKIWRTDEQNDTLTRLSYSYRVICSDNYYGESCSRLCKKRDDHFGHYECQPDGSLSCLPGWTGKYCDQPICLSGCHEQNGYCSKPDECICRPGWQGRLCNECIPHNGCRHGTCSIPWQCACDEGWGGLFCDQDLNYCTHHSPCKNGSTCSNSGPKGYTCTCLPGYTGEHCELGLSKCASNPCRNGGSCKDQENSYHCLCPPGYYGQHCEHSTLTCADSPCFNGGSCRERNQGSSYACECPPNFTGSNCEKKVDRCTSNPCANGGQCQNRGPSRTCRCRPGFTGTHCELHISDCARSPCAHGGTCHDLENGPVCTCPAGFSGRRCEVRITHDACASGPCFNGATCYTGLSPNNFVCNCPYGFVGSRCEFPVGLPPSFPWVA

[8] = target: T3, human DLL4 extracellular domain; assay: competition ELISA, competitor huNotch-1
Description: (§3) Plates were then washed 3 times with wash buffer (PBS, 0.05% Tween-20) and blocked with 200 μl/well blocking buffer (D-PBS, 1% BSA, 1 mM CaCl₂, 0.05% Tween-20) for 1 hour at 25° C. […] Assay plates were washed after blocking, and incubated with DLL4/antibody mixtures (100 μl/well, 1 hour at 25° C. with shaking). […] After a final wash, plates were developed using 100 μl/well substrate (TMB Sigma # T8665), and the reaction was stopped after an 8-minute incubation at 25° C. (for muDLL4 ELISA) and after 20 minute incubation at 25° C. (for huDLL4 ELISA) using 100 μl/well 1N HCl, and the absorbance was read at 450 nm.

[9] = target: T4, mouse DLL4 extracellular domain; assay: competition ELISA, competitor huNotch-1
Description: as §3

[10] = target: T5, rat DLL4 extracellular domain (rat, UniProt D3ZHH1 28-530); assay: Biacore SPR
T5 construct: extracellular domain; also called ratDLL4 ECD
T5 sequence (D3ZHH1 28-530): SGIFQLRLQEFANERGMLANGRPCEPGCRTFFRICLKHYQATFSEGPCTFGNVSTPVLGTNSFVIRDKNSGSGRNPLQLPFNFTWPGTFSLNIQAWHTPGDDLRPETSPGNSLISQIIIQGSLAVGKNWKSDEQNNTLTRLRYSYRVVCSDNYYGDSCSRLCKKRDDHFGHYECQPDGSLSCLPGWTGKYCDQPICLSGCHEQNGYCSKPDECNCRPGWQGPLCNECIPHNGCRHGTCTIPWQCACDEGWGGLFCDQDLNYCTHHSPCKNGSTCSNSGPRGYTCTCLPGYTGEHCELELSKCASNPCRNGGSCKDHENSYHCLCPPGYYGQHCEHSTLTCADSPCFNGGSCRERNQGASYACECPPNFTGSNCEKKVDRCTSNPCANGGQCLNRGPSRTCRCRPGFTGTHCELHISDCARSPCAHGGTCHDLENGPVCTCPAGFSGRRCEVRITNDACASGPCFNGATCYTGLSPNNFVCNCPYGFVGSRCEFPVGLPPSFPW
Description: (§4) Binding of DLL4 antibodies to a purified recombinant DLL4 extracellular domain is determined by surface plasmon resonance-based measurements with a Biacore® instrument (either a Biacore 2000, Biacore 3000, or Biacore T100, GE Healthcare, Piscataway, N.J. US) using running buffer HBS-EPB (10 mM HEPES [pH 7.4], 150 mM NaCl, 3 mM EDTA, 0.1 mg/ml BSA and 0.005% surfactant P20) at 25° C. For example, approximately 9000 RU of goat anti-human Fc specific polyclonal antibody (Thermo Fisher Scientific Inc., Rockford, Ill., US) diluted in 10 mM sodium acetate (pH 4.5) is directly immobilized across a CM5 research grade biosensor chip using a standard amine coupling kit according to manufacturer's instructions and procedures at 25 μg/ml. Unreacted moieties on the biosensor surface are blocked with ethanolamine. For kinetic analysis, rate equations derived from the 1:1 Langmuir binding model are fitted simultaneously to multiple antigen injections (using global fit analysis) with the use of Scrubber 2 (BioLogic Software). […] The equilibrium dissociation constant KD (M) of the reaction between antibodies and the target antigen is then calculated from the kinetic rate constants by the following formula: KD=Koff/Kₒₙ. Binding is recorded as a function of time and kinetic rate constants are calculated. In this assay, on-rates as fast as 10⁶ M⁻¹s⁻¹ and off-rates as slow as 10⁻⁶ s⁻¹ can be measured.

[11] = target: T3, human DLL4 extracellular domain; assay: Biacore SPR
Description: as §4

[12] = target: T4, mouse DLL4 extracellular domain; assay: Biacore SPR
Description: as §4

[13] = target: T3, human DLL4 extracellular domain; assay: capture ELISA
Description: (§5) ELISA plates were washed 3 times with wash buffer (PBS, 0.05% Tween-20) and then blocked with 200 ml/well blocking buffer (D-PBS, 1% BSA, 1 mM CaCl₂, 0.05% Tween-20) for 1 hour at 25° C. Plates were washed 3 times and incubated with 100 μl/well DLL4 antibodies (0.0001-100 nM, 10-fold serial dilution in blocking buffer) for 1 hour at 25° C., and then washed again 3 times. […] The reaction was stopped after 2 minutes at 25° C. with 100 μl/well 2 N H2SO₄ and the absorbance was read at 450 nm. Data were analyzed using Graphpad Prism software and EC₅₀ values were reported.

[14] = target: T4, mouse DLL4 extracellular domain; assay: capture ELISA
Description: as §5

[15] = target: T6, human DLL4-his (human, UniProt Q9NR61 27-529); assay: ELISA on DLL4-his
T6 construct: extracellular domain
Description: (§6) After the final wash, plates were incubated with 100 μl/well ELISA substrate (Sigma # T8665). The reaction was stopped after 8 minutes at 25° C. with 100 μl/well 1N HCl and the absorbance was read at 450 nm. Data were analyzed using Graphpad Prism software and EC50 values were reported.

[16] = target: T7, mouse DLL4-his (mouse, UniProt Q9JI71 27-532); assay: ELISA on DLL4-his
T7 construct: extracellular domain; not shown: his tag
T7 sequence (Q9JI71 27-532): as the sequence (Q9JI71 27-532) above

[17] = target: T3, human DLL4 extracellular domain; assay: competition ELISA, competitor huNotch-1; remark: listed apart in the source
Description: as §3

[18] = target: T4, mouse DLL4 extracellular domain; assay: competition ELISA, competitor huNotch-1; remark: listed apart in the source
Description: as §3

[19] = target: T6, human DLL4-his; assay: ELISA on DLL4-his; remark: listed apart in the source
Description: as §6

[20] = target: T7, mouse DLL4-his; assay: ELISA on DLL4-his; remark: listed apart in the source
Description: as §6

[21] = target: T1, human DLL4 on the cell surface; assay: competition FACS, competitor huNotch-1; remark: listed apart in the source
Description: as §1

[22] = target: T2, mouse DLL4 on the cell surface; assay: competition FACS, competitor huNotch-1; remark: listed apart in the source
Description: as §1

[23] = target: T3, human DLL4 extracellular domain; assay: Biacore SPR; remark: listed apart in the source
Description: (§7) The BIACORE® surface plasmon resonance assay (Biacore, Inc., Piscataway, N.J., US) determines the affinity of antibodies with kinetic measurements of on-rate and off-rate constants. Binding of DLL4 antibodies to a purified recombinant DLL4 extracellular domain is determined by surface plasmon resonance-based measurements with a Biacore® instrument (either a Biacore 2000, Biacore 3000, or Biacore T100, GE Healthcare, Piscataway, N.J. US) using running buffer HBS-EPB (10 mM HEPES [pH 7.4], 150 mM NaCl, 3 mM EDTA, 0.1 mg/ml BSA and 0.005% surfactant P20) at 25° C. For example, approximately 9000 RU of goat anti-human Fc specific polyclonal antibody (Thermo Fisher Scientific Inc., Rockford, Ill., US) diluted in 10 mM sodium acetate (pH 4.5) is directly immobilized across a CM5 research grade biosensor chip using a standard amine coupling kit according to manufacturer's instructions and procedures at 25 μg/ml. Unreacted moieties on the biosensor surface are blocked with ethanolamine. For kinetic analysis, rate equations derived from the 1:1 Langmuir binding model are fitted simultaneously to multiple antigen injections (using global fit analysis) with the use of Scrubber 2 (BioLogic Software). […] The equilibrium dissociation constant KD (M) of the reaction between antibodies and the target antigen is then calculated from the kinetic rate constants by the following formula: KD=Koff/Kₒₙ. Binding is recorded as a function of time and kinetic rate constants are calculated. In this assay, on-rates as fast as 10⁶ M⁻¹s⁻¹ and off-rates as slow as 10⁻⁶ s⁻¹ can be measured.

[24] = target: T4, mouse DLL4 extracellular domain; assay: Biacore SPR; remark: listed apart in the source
Description: as §7

[25] = target: T3, human DLL4 extracellular domain; assay: Biacore SPR; remark: listed apart in the source
Description: as §7

[26] = target: T4, mouse DLL4 extracellular domain; assay: Biacore SPR; remark: listed apart in the source
Description: as §7

[27] = target: T1, human DLL4 on the cell surface; assay: FACS on DLL4 cells; remark: listed apart in the source
Description: as §2

[28] = target: T2, mouse DLL4 on the cell surface; assay: FACS on DLL4 cells; remark: listed apart in the source
Description: as §2

[29] = target: T2, mouse DLL4 on the cell surface; assay: FACS on DLL4 cells (*historic data)
[30] = target: T1, human DLL4 on the cell surface; assay: FACS on DLL4 cells; remark: listed apart in the source
Description: as §2

[31] = target: T3, human DLL4 extracellular domain; assay: competition ELISA, competitor huNotch-1; remark: listed apart in the source
Description: as §3

[32] = target: T4, mouse DLL4 extracellular domain; assay: competition ELISA, competitor huNotch-1; remark: listed apart in the source
Description: as §3

[33] = target: T1, human DLL4 on the cell surface; assay: competition FACS, competitor huNotch-1; remark: listed apart in the source
Description: as §1

[34] = target: T2, mouse DLL4 on the cell surface; assay: competition FACS, competitor huNotch-1; remark: listed apart in the source
Description: as §1

[35] = target: T1, human DLL4 on the cell surface; assay: FACS on DLL4 cells; remark: listed apart in the source
[36] = target: T3, human DLL4 extracellular domain; assay: Biacore SPR; remark: listed apart in the source
[37] = target: T4, mouse DLL4 extracellular domain; assay: Biacore SPR; remark: listed apart in the source
[38] = target: T2, mouse DLL4 on the cell surface; assay: competition FACS, competitor huNotch-1; competition FACS, huNotch-1/DLL4 cells (IC50)
Description: as §1

[39] = target: T1, human DLL4 on the cell surface; assay: competition FACS, competitor huNotch-1; remark: listed apart in the source
Description: as §1

[40] = target: T3, human DLL4 extracellular domain; assay: Biacore SPR (*historic data); historic data, not from the same run as the other cells
[41] = target: T2, mouse DLL4 on the cell surface; assay: FACS on DLL4 cells; remark: listed apart in the source
Description: as §2

IC50 [1]: 23.4 nM
IC50 [2]: 3.2 nM
EC50 [3]: 7.23 nM
EC50 [4]: 0.32 nM
Inhibition of Notch activation via huDLL4 cells, coculture (IC50, nM) [5]: 6.2 nM
sVEGFR1 Inhibition (IC50, nM) DLL4 ECD/EaHy cells, hu [6]: 1 nM
sVEGFR1 Inhibition (IC50, nM) DLL4 ECD/EaHy cells, mu [7]: 0.4 nM
IC50 [8]: 1.7 nM
IC50 [9]: 2.1 nM
Kd [10]: 15 nM
koff [10]: 0.00029 s⁻¹
kon [10]: 19000 M⁻¹ s⁻¹
Kd [11]: 3.36 nM
koff [11]: 6.6e-05 s⁻¹
kon [11]: 20000 M⁻¹ s⁻¹
Kd [12]: 16 nM
koff [12]: 0.00026 s⁻¹
kon [12]: 18000 M⁻¹ s⁻¹
EC50 [13]: 0.17 nM
EC50 [14]: 0.18 nM
B1: E9 (antibody, IgG1, V domains shown)
VH: EVQLQESGPGLVKPSETLSLTCTVSGGSISSSSYYWGWIRQPPGKGLEWIGDIYYTGSTYYNPSLKSRVTISVDTSKNQFSLKLSSVTAADTAVYYCAREDVILRGGSDYWGQGTLVTVSS
VL: SYELTQPPSVSVSPGQTASITCSGQRLGDKYASWYQQKPGQSPVLVIYEDSKRPSGIPERFSGSNSGDTATLTISGTQPMDEADYYCQAWDRDTGVFGYGTRVTVL
notes: also called anti-DLL4 PROfusion antibody E9

EC50 [15]: 0.29 nM
EC50 [16]: 0.34 nM
IC50 [17]: 2.2 nM
IC50 [18]: 5.85 nM
EC50 [19]: 0.03 nM
EC50 [20]: 0.04 nM
IC50 [21]: 4.55 nM
IC50 [22]: 1.02 nM
Kd [23]: 2.38 nM
Kd [24]: 12.8 nM
Kd [25]: 0.52 nM
Kd [26]: 1.1 nM
Kd [27]: 3.62 nM
Kd [28]: 1.66 nM
Kd [29]: 1.6 nM
Kd [30]: 0.35 nM
IC50 [31]: 2.5 nM
IC50 [32]: 2.5 nM
IC50 [33]: 1.62 nM
IC50 [34]: 1.06 nM
B2: E9.1 (antibody, human IgG1, V domains shown)
VH: B1 VH
VL: SYELTQPPSVSVSPGQTASITCSGQRLGDKYASWYQQKPGQSPVLVIYEDSKRPSGIPERFSGSNSGDTATLTISGTQPMDEADYYCQAWDRDTGVFGYGTRVTVLG

EC50 [35]: 1.7 nM
Kd [36]: 2.45 nM
koff [36]: 3.15e-05 s⁻¹
kon [36]: 12900 M⁻¹ s⁻¹
Kd [37]: 8.1 nM
koff [37]: 0.000148 s⁻¹
kon [37]: 18300 M⁻¹ s⁻¹
IC50 [38]: 1.1 nM
IC50 [39]: 12.6 nM
B3: E9.16 (antibody, V domains shown)
VH: B1 VH
VL: B1 VL with Q25E, A32V, S51F, R102K
notes: also called DLL4-E9-16 hIgG1/L

EC50 [15]: 0.16 nM
EC50 [16]: 0.19 nM
Kd [40]: 15.2 nM
IC50 [21]: 8.51 nM
IC50 [22]: 1.71 nM
Kd [24]: 12.8 nM
Kd [30]: 3.45 nM
Kd [41]: 1.34 nM
IC50 [31]: 2.7 nM
IC50 [32]: 2.9 nM
B4: E9-SE1 (antibody, V domains shown)
VH: EVQLVESGGGLVQPGGSLRLSCAVSGGSISSSSYYWGWIRQAPGKGLEWIGDIYYTGSTYYNPSLKSRVTISVDTSKNSFYLQMNSLRAEDTAVYYCAREDVILRGGSDYWGQGTLVTVSS
VL: B2 VL with S1L, E3V, P79T, Y86L, Y99G, R102K
notes: full-length human IgG1
